From PMC4619763, “A Novel Highly Thermostable Multifunctional Beta-Glycosidase from Crenarchaeon Acidilobus saccharovorans” (Archaea, 2015)

Columns and labels:
Asac_1390 = target: T1, Asac_1390 (Acidilobus saccharovorans, UniProt D9PZ08); assay: oNPGal hydrolysis, Cornish-Bowden and Dixon plots; format: biochemical; conditions: mixed inhibition, dissociation constant of the EIS complex; otherwise as the row above
T1 construct: full length, 490 residues, about 55 kDa on SDS-PAGE; pQE60 NcoI/BglII, expressed in E. coli DLT1270 pRARE2; purified by double heat treatment; no secretion signal; no tag mentioned (reverse primer carries the stop codon)
T1 sequence (D9PZ08 1-490): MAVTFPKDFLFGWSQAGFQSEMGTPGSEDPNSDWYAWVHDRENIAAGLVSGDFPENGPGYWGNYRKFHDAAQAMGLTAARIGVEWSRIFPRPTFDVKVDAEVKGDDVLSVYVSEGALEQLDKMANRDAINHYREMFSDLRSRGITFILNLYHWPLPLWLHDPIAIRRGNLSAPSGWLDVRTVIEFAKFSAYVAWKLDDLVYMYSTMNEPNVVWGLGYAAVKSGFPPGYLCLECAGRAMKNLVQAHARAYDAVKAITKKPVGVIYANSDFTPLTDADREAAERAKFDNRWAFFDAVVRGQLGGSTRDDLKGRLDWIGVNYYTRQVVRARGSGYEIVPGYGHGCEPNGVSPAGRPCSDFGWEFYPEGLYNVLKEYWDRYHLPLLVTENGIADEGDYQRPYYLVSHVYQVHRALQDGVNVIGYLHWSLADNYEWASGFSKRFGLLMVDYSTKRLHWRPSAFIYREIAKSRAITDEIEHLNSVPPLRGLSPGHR

purified protein [1] = substrate: O=[N+]([O-])c1ccc(O[C@@H]2OC[C@@H](O)[C@H](O)[C@H]2O)cc1; assay: purified protein; format: biochemical, Acidilobus saccharovorans; conditions: 0.1 M sodium phosphate pH 7.0, 93°C
purified protein [2] = substrate: O=[N+]([O-])c1ccc(O[C@@H]2O[C@H](CO)[C@@H](O)[C@H](O)[C@@H]2O)cc1; assay: purified protein; format: biochemical, Acidilobus saccharovorans; conditions: 0.1 M sodium phosphate pH 7.0, 93°C
purified protein [3] = substrate: O=[N+]([O-])c1ccc(O[C@@H]2O[C@H](CO)[C@@H](O)[C@H](O)[C@H]2O)cc1; assay: purified protein; format: biochemical, Acidilobus saccharovorans; conditions: 0.1 M sodium phosphate pH 7.0, 93°C
purified protein [4] = substrate: O=[N+]([O-])c1ccc(O[C@@H]2O[C@H](CO)[C@H](O)[C@H](O)[C@H]2O)cc1; assay: purified protein; format: biochemical, Acidilobus saccharovorans; conditions: 0.1 M sodium phosphate pH 7.0, 93°C
purified protein [5] = substrate: O=[N+]([O-])c1ccccc1O[C@@H]1O[C@H](CO)[C@H](O)[C@H](O)[C@H]1O; assay: purified protein; format: biochemical, Acidilobus saccharovorans; conditions: 0.1 M sodium phosphate pH 7.0, 93°C

OC[C@H]1OC(O)[C@H](O)[C@@H](O)[C@@H]1O (stereo partly drawn) [glucose]
K i′ (Asac_1390): 158 mM

B1: Asac_1390 (Acidilobus saccharovorans 345-15) (protein)
chain: T1 sequence (D9PZ08 1-490)
notes: full length, 490 residues, about 55 kDa on SDS-PAGE; pQE60 NcoI/BglII, expressed in E. coli DLT1270 pRARE2; purified by double heat treatment; no secretion signal; no tag mentioned (reverse primer carries the stop codon)
Km (purified protein [1]): 4650 µM | Vmax (purified protein [1]): 124 µmol/min/mg | kcat (purified protein [1]): 115 s⁻¹ | kcat/Km (purified protein [1]): 24600 M⁻¹ s⁻¹ | Km (purified protein [2]): 2400 µM | Vmax (purified protein [2]): 62.8 µmol/min/mg | kcat (purified protein [2]): 58.2 s⁻¹ | kcat/Km (purified protein [2]): 24200 M⁻¹ s⁻¹ | Km (purified protein [3]): 240 µM | Vmax (purified protein [3]): 344 µmol/min/mg | kcat (purified protein [3]): 318 s⁻¹ | kcat/Km (purified protein [3]): 1.33e+06 M⁻¹ s⁻¹ | Km (purified protein [4]): 2900 µM | Vmax (purified protein [4]): 499 µmol/min/mg | kcat (purified protein [4]): 462 s⁻¹ | kcat/Km (purified protein [4]): 160000 M⁻¹ s⁻¹ | Km (purified protein [5]): 2000 µM | Vmax (purified protein [5]): 469 µmol/min/mg | kcat (purified protein [5]): 434 s⁻¹ | kcat/Km (purified protein [5]): 217000 M⁻¹ s⁻¹
